According to PMC10018365, “Cryo-EM structure of the fully assembled Elongator complex” (Nucleic Acids Research, 2023):

B1: Homo sapiens Elp456 subcomplex, wild type (complex)
chain 1: MAAVATCGSVAASTGSAVATASKSNVTSFQRRGPRASVTNDSGPRLVSIAGTRPSVRNGQLLVSTGLPALDQLLGGGLAVGTVLLIEEDKYNIYSPLLFKYFLAEGIVNGHTLLVASAKEDPANILQELPAPLLDDKCKKEFDEDVYNHKTPESNIKMKIAWRYQLLPKMEIGPVSSSRFGHYYDASKRMPQELIEASNWHGFFLPEKISSTLKVEPCSLTPGYTKLLQFIQNIIYEEGFDGSNPQKKQRNILRIGIQNLGSPLWGDDICCAENGGNSHSLTKFLYVLRGLLRTSLSACIITMPTHLIQNKAIIARVTTLSDVVVGLESFIGSERETNPLYKDYHGLIHIRQIPRLNNLICDESDVKDLAFKLKRKLFTIERLHLPPDLSDTVSRSSKMDLAESAKRLGPGCGMMAGGKKHLDF
chain 2: MLDSLLALGGLVLLRDSVEWEGRSLLKALVKKSALCGEQVHILGCEVSEEEFREGFDSDINNRLVYHDFFRDPLNWSKTEEAFPGGPLGALRAMCKRTDPVPVTIALDSLSWLLLRLPCTTLCQVLHAVSHQDSCPGDSSSVGKVSVLGLLHEELHGPGPVGALSSLAQTEVTLGGTMGQASAHILCRRPRQRPTDQTQWFSILPDFSLDLQEGPSVESQPYSDPHIPPVDPTTHLTFNLHLSKKEREARDSLILPFQFSSEKQQALLRPRPGQATSHIFYEPDAYDDLDQEDPDDDLDI
chain 3: MFVELNNLLNTTPDRAEQGKLTLLCDAKTDGSFLVHHFLSFYLKANCKVCFVALIQSFSHYSIVGQKLGVSLTMARERGQLVFLEGLKSAVDVVFQAQKEPHPLQFLREANAGNLKPLFEFVREALKPVDSGEARWTYPVLLVDDLSVLLSLGMGAVAVLDFIHYCRATVCWELKGNMVVLVHDSGDAEDEENDILLNGLSHQSHLILRAEGLATGFCRDVHGQLRILWRRPSQPAVHRDQSFTYQYKIQDKSVSFFAKGMSPAVL
notes: Elp4, human, ORF; Elp5, human, ORF; Elp6, human, ORF; also called human Elp456; source: Hi-5 insect cells (baculovirus, biGBac), purified (IgG Sepharose with TEV elution, Superose 6); not shown: FLAG, C-terminal, kept; Protein A, C-terminal, cleaved; copies: 2 + 2 + 2
B2: Homo sapiens Elp456 subcomplex with Elp4 Δ133–175 (complex)
chain 1: MAAVATCGSVAASTGSAVATASKSNVTSFQRRGPRASVTNDSGPRLVSIAGTRPSVRNGQLLVSTGLPALDQLLGGGLAVGTVLLIEEDKYNIYSPLLFKYFLAEGIVNGHTLLVASAKEDPANILQELPAPSSSRFGHYYDASKRMPQELIEASNWHGFFLPEKISSTLKVEPCSLTPGYTKLLQFIQNIIYEEGFDGSNPQKKQRNILRIGIQNLGSPLWGDDICCAENGGNSHSLTKFLYVLRGLLRTSLSACIITMPTHLIQNKAIIARVTTLSDVVVGLESFIGSERETNPLYKDYHGLIHIRQIPRLNNLICDESDVKDLAFKLKRKLFTIERLHLPPDLSDTVSRSSKMDLAESAKRLGPGCGMMAGGKKHLDF
chain 2: B1 chain 2
chain 3: B1 chain 3
notes: Elp5, human, ORF; Elp6, human, ORF; source: Hi-5 insect cells (baculovirus, biGBac), purified (IgG Sepharose with TEV elution, Superose 6); not shown: FLAG, C-terminal, kept; Protein A, C-terminal, cleaved; copies: 2 + 2 + 2

Key:
Details in all cases: both partners purified
[1] = target: T1, Homo sapiens Elp123 subcomplex, wild type (Homo sapiens, UniProt O95163 1-1332; Q6IA86 1-826; Q9H9T3 1-547); assay: SEC; Elp123 incubated with the respective Elp456 for 30 min at 25°C at 1:2 weight ratio, then Superose 6 Increase 10/300 GL in 20 mM HEPES pH 7.5, 100 mM NaCl, 5 mM DTT
T1 construct: Elp1, human, ORF; Elp2, human, ORF; Elp3, human, ORF; also called human Elp123; source: Sf9-3 insect cells (baculovirus, biGBac), purified (StrepTrap, heparin, Superose 6); not shown: Twin-Strep-tag, C-terminal, kept; copies: 2 + 2 + 2

[2] = target: T2, Homo sapiens Elp123 subcomplex with Elp1 Δ1132–1224 (Homo sapiens, UniProt O95163 1-1332; Q6IA86 1-826; Q9H9T3 1-547, Δ1132–1224); assay: pull-down; 10 μg bait, 20 μg prey; Elp123 on StrepTactin Sepharose by Twin-Strep-tagged Elp3, or Elp456 on anti-DYKDDDDK resin by FLAG-tagged Elp6; 30-60 min at 4°C; washes in 20 mM HEPES pH 7.5, 100 mM NaCl, 1 mM DTT, 0.05% Tween 20; SDS-PAGE with Coomassie or silver stain; also with ATP and bulk tRNA
T2 construct: Elp2, human, ORF; Elp3, human, ORF; source: Sf9-3 insect cells (baculovirus, biGBac), purified (StrepTrap, heparin, Superose 6); not shown: Twin-Strep-tag, C-terminal, kept; copies: 2 + 2 + 2

[3] = target: T1, Homo sapiens Elp123 subcomplex, wild …; assay: as above

T1 sequence (O95163 whole entry, chain 1 of 3): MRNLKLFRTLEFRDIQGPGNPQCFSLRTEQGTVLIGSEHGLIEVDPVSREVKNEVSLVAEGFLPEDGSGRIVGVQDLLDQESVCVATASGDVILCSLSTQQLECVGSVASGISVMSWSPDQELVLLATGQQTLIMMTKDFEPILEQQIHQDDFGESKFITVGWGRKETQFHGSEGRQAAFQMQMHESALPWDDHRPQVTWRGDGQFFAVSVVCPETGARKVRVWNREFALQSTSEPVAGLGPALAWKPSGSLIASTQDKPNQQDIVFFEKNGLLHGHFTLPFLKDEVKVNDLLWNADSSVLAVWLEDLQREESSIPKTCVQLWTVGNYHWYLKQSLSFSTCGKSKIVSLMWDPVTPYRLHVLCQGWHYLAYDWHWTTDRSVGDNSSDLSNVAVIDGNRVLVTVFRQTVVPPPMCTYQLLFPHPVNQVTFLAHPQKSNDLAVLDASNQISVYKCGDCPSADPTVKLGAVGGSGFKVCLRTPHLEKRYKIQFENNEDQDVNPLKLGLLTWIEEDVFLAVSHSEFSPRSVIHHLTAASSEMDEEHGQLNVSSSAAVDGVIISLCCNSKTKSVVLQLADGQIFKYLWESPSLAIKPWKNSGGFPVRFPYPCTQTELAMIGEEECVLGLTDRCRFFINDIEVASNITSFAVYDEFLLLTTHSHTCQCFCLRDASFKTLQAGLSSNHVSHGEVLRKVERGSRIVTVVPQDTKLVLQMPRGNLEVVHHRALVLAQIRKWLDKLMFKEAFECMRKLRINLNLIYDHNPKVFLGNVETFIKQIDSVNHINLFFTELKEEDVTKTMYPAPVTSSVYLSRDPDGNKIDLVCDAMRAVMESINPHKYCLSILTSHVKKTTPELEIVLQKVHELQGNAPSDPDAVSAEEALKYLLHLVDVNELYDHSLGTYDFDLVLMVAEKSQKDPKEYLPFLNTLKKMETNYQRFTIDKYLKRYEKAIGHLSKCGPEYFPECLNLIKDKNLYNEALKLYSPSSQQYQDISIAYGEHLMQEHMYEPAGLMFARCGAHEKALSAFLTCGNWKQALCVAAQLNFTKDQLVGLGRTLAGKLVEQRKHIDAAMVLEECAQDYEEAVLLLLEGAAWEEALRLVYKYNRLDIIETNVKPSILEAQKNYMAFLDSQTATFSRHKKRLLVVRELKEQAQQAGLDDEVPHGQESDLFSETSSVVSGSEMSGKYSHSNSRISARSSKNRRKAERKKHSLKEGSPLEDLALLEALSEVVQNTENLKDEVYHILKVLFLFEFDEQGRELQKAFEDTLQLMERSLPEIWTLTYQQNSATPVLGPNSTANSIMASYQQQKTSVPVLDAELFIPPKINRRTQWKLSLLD
T1 sequence (Q6IA86 whole entry, chain 2 of 3): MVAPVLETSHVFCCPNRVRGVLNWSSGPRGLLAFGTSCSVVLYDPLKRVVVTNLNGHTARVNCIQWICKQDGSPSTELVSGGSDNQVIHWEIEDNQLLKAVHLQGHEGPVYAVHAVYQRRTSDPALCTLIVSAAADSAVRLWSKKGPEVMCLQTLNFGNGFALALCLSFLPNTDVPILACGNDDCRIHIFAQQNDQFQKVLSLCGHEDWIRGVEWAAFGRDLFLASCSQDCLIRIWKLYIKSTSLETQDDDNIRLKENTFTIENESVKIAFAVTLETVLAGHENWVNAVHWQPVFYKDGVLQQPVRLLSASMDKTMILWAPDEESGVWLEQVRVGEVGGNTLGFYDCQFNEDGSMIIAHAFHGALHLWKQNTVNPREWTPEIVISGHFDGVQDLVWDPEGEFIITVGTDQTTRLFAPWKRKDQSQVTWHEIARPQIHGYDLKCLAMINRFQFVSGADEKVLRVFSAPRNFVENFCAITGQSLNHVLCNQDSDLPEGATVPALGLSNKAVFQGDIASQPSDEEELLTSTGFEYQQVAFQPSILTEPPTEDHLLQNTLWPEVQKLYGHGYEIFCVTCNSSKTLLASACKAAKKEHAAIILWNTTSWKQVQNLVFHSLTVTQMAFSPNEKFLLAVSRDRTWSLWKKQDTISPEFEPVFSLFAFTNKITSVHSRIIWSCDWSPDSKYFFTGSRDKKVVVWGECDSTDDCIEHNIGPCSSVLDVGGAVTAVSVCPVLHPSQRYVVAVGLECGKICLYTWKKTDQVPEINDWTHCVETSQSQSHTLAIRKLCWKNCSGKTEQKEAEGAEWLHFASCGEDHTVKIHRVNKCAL
T1 sequence (Q9H9T3 whole entry, chain 3 of 3): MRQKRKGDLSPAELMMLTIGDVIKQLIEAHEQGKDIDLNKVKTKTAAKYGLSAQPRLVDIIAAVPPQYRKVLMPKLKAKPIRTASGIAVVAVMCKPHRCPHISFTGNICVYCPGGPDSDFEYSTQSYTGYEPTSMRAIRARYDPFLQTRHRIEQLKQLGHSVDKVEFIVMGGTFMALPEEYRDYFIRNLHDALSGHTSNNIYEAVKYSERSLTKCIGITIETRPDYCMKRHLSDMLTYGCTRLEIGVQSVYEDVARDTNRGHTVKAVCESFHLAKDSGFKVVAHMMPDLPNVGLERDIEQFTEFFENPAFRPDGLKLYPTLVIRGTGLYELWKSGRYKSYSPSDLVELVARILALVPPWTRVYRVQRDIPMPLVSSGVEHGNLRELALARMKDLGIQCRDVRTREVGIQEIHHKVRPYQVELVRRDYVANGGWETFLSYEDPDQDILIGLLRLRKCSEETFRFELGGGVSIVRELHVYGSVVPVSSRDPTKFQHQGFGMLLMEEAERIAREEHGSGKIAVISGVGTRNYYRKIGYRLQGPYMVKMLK
T2 sequence (O95163 other isoform, or with tags, fused parts or gaps Δ1132–1224 | Δ1132–1224 | mutant, chain 1 of 3): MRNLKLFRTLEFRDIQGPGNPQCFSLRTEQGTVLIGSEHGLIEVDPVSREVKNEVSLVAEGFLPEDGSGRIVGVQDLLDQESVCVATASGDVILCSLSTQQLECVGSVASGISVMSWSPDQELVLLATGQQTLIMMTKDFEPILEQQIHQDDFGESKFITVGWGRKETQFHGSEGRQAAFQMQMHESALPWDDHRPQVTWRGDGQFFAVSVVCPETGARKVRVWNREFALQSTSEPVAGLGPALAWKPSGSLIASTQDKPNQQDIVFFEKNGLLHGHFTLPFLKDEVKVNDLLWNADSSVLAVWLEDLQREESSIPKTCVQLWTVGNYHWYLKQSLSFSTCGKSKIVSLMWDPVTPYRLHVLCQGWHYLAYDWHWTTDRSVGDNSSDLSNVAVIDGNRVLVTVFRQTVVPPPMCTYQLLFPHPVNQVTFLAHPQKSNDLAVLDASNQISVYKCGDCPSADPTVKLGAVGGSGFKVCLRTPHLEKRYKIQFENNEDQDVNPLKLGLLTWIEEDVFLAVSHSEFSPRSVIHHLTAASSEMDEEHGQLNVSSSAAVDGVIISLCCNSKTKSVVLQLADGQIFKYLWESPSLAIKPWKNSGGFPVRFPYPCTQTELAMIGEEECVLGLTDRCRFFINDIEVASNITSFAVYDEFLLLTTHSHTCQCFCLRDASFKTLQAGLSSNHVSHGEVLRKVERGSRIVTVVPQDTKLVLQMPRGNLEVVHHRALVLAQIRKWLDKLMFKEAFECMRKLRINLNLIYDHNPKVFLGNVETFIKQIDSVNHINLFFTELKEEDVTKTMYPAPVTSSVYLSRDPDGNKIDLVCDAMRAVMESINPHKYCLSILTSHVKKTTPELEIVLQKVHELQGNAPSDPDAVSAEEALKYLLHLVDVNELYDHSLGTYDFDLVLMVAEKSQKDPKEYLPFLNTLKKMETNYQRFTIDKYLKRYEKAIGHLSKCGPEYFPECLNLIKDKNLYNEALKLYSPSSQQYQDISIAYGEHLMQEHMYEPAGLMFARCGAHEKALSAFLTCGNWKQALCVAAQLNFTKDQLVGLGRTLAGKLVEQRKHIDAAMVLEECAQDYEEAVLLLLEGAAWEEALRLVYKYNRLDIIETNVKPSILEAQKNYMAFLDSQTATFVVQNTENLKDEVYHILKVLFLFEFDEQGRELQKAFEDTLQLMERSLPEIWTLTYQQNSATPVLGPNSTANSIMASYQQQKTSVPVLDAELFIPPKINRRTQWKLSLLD
T2 sequence (Q6IA86 whole entry, stated change not applied, chain 2 of 3): as the sequence (Q6IA86 whole entry, chain 2 of 3) above
T2 sequence (Q9H9T3 whole entry, stated change not applied, chain 3 of 3): as the sequence (Q9H9T3 whole entry, chain 3 of 3) above

Row | Binder | binding result [1] | binding result [2] | binding result [3]
1 | B1 | binds | binds | 
2 | B2 |  |  | binds
